Positions count from the first letter of the chain named. Blank lines part the entries; values can stand above or below the binder they belong to.
What was measured:
human CD19 on Raji cells = biological target: T1, human CD19 on Raji cells (human, UniProt P15391 20-556); test: FACS on Raji cells
T1 construct: whole, on cells
T1 sequence (looked up): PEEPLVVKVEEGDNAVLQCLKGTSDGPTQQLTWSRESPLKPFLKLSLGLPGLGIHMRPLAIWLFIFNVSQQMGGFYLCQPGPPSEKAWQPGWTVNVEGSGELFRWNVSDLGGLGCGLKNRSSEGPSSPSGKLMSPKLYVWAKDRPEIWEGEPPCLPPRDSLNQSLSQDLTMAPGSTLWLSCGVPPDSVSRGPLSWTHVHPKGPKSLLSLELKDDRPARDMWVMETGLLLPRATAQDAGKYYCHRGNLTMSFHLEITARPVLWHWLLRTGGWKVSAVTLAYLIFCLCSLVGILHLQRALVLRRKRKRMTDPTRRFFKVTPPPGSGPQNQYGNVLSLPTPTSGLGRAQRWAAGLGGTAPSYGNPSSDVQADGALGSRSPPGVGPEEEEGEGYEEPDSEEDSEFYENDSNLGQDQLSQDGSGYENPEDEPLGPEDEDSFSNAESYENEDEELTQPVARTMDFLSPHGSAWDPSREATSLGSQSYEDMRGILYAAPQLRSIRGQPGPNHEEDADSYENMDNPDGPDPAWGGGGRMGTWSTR

Human CD19-his protein [1] = biological target: T2, Human CD19-his protein (human, UniProt P15391 20-291); test: ELISA, coated human CD19-His
T2 construct: bought protein; also called recombinant human CD19-His; CD19 full-length protein; not shown: His tag
T2 sequence (looked up): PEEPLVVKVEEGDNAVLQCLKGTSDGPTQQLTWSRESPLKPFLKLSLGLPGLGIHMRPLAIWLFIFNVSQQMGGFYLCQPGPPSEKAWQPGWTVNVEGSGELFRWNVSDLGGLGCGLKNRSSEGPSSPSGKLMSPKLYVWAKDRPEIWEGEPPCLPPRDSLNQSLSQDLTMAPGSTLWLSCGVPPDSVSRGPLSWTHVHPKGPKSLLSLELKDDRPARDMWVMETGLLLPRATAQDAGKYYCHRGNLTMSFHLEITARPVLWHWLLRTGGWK

[2] = biological target: T3, human CD19 on CHO-K1-human CD19 cells (human, UniProt P15391 20-556); test: FACS on CHO-K1-human CD19 cells
T3 construct: whole, on cells; also called CHO-K1-human CD19-2C8
T3 sequence (looked up): T1 sequence (looked up)

Human CD19-his protein [3] = biological target: T2, Human CD19-his protein; test: ELISA on coated human CD19-His
[4] = biological target: T4, human CD19 exon1-3-His tag protein (human, UniProt P15391 20-186, limits assumed); test: ELISA, coated human CD19 exon 1-3-His
T4 construct: membrane-distal part of the extracellular region, made in HEK293E cells; not shown: His tag
T4 sequence (looked up): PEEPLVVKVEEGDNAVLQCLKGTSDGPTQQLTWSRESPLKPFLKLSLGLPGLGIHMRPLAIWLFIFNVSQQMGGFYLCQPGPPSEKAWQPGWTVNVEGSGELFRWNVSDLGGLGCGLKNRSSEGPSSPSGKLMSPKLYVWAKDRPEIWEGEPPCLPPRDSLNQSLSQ

[5] = biological target: T4, human CD19 exon1-3-His tag protein; test: ELISA on coated human CD19 exon 1-3-His
Human CD19-his protein [6] = biological target: T2, Human CD19-his protein; test: SPR Biacore, method of example 7.1, human CD19-His
Method in brief: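 Antibody captured on Protein A chip; recombinant human CD19-His injected for 240 s at 30 μl/min, five 1:1 dilutions from 200 nM, dissociation up to 600 s.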

Human CD19-his protein [7] = biological target: T2, Human CD19-his protein; test: SPR Biacore, Ab captured on Protein A, CD19-His analyte
Method in brief: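 Antibodies were captured on a Protein A chip at 25 °C in HBS-EP+. Human CD19-His was injected for 240 s at 30 μl/min at 5 concentrations from 200 nM (1:1 dilutions), with dissociation up to 600 s. Data were double-referenced and fitted to a Langmuir 1:1 model for apparent KD.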

EC50 (human CD19 on Raji cells): 0.31 nM
Maximum mean fluorescence intensity (human CD19 on Raji cells): 32900 MFI
OD450 at 0.0001 nM (Human CD19-his protein [1]): 0.05 OD450
OD450 at 0.001 nM (Human CD19-his protein [1]): 0.06 OD450
OD450 at 0.01 nM (Human CD19-his protein [1]): 0.11 OD450
OD450 at 0.10 nM (Human CD19-his protein [1]): 0.5 OD450
OD450 at 1.00 nM (Human CD19-his protein [1]): 0.88 OD450
OD450 at 10 nM (Human CD19-his protein [1]): 1.04 OD450
OD450 at 100 nM (Human CD19-his protein [1]): 0.82 OD450
EC50 [2]: 0.3 nM
Maximum mean fluorescence intensity [2]: 53700 MFI
EC50 (read off the curve) (Human CD19-his protein [3]): ~0.1 nM
OD450 at 0.0001 nM [4]: 0.05 OD450
OD450 at 0.001 nM [4]: 0.05 OD450
OD450 at 0.01 nM [4]: 0.05 OD450
OD450 at 0.10 nM [4]: 0.05 OD450
OD450 at 1.00 nM [4]: 0.05 OD450
OD450 at 10 nM [4]: 0.05 OD450
OD450 at 100 nM [4]: 0.07 OD450
binding result [5]: no binding (tested: 100 nM)
Kd (Human CD19-his protein [6]): 1.15 nM
koff (Human CD19-his protein [6]): 0.000375 s⁻¹
kon (Human CD19-his protein [6]): 327000 M⁻¹ s⁻¹
Kd (Human CD19-his protein [7]): 1.15 nM
koff (Human CD19-his protein [7]): 0.000375 s⁻¹
kon (Human CD19-his protein [7]): 327000 M⁻¹ s⁻¹
B1: F3.121.4 (antibody, human IgG1, V domains shown)
VH: QVQLQQPGAELVVPGTSVKLSCKASGYTFTNYWMHWVKQRPGQGLEWIGEIDPSDNYANYNQEFQGKATLTVDKSSSTAYMQLSSLTSDDSAVYYCARHDGYFGALDYWGQGTSVTVSS
VL: EIVLTQSPTTMAASPGEKITITCSASSSISSNYLHWYQQKPGFSPKFLIYRTSNLASGVPARFSGSGSGTSYSLTIGTMEAEDVATYYCQQASSIPRMFTFGSGTKLEIK
notes: human-murine chimeric antibody, human IgG1 constant; also called chimeric antibody F3.121.4

EC50 (human CD19 on Raji cells): 0.45 nM
Maximum mean fluorescence intensity (human CD19 on Raji cells): 32200 MFI
OD450 at 0.0001 nM (Human CD19-his protein [1]): 0.1 OD450
OD450 at 0.001 nM (Human CD19-his protein [1]): 0.15 OD450
OD450 at 0.01 nM (Human CD19-his protein [1]): 0.43 OD450
OD450 at 0.10 nM (Human CD19-his protein [1]): 1.65 OD450
OD450 at 1.00 nM (Human CD19-his protein [1]): 2.28 OD450
OD450 at 10 nM (Human CD19-his protein [1]): 2.22 OD450
OD450 at 100 nM (Human CD19-his protein [1]): 2.19 OD450
EC50 [2]: 1.16 nM
Maximum mean fluorescence intensity [2]: 51800 MFI
EC50 (read off the curve) (Human CD19-his protein [3]): ~0.05 nM
OD450 at 0.0001 nM [4]: 0.05 OD450
OD450 at 0.001 nM [4]: 0.05 OD450
OD450 at 0.01 nM [4]: 0.05 OD450
OD450 at 0.10 nM [4]: 0.05 OD450
OD450 at 1.00 nM [4]: 0.05 OD450
OD450 at 10 nM [4]: 0.05 OD450
OD450 at 100 nM [4]: 0.08 OD450
Kd (Human CD19-his protein [6]): 0.0088 nM
koff (Human CD19-his protein [6]): 1.04e-06 s⁻¹
kon (Human CD19-his protein [6]): 118000 M⁻¹ s⁻¹
B2: F3.121.4-L3H3 (antibody, mouse IgG1, kappa)
heavy: EVQLVQSGAEVKKPGASVKVSCKASGYTFTNYWMHWVRQRPGQGLEWMGEIDPSDNYANYNQEFQGRVTITVDKSASTAYMELSSLRSEDTAVYYCARHDGYFGALDYWGQGTTVTVSSAKTTPPSVYPLAPGSAAQTNSMVTLGCLVKGYFPEPVTVTWNSGSLSSGVHTFPAVLQSDLYTLSSSVTVPSSTWPSETVTCNVAHPASSTKVDKKIVPRDCGCKPCICTVPEVSSVFIFPPKPKDVLTITLTPKVTCVVVDISKDDPEVQFSWFVDDVEVHTAQTQPREEQFNSTFRSVSELPIMHQDWLNGKEFKCRVNSAAFPAPIEKTISKTKGRPKAPQVYTIPPPKEQMAKDKVSLTCMITDFFPEDITVEWQWNGQPAENYKNTQPIMDTDGSYFVYSKLNVQKSNWEAGNTFTCSVLHEGLHNHHTEKSLSHSPGK
light: EIVLTQSPDFQSVTPKEKVTITCSASSSISSNYLHWYQQKPDQSPKFLIYRTSNLASGVPSRFSGSGSGTDFTLTINSLEAEDAATYYCQQASSIPRMFTFGQGTKLEIKRADAAPTVSIFPPSSEQLTSGGASVVCFLNNFYPKDINVKWKIDGSERQNGVLNSWTDQDSKDSTYSMSSTLTLTKDEYERHNSYTCEATHKTSTSPIVKSFNRNEC
notes: humanized antibody of F3.121.4, VL3+VH3, murine IgG1 constant regions

EC50 (human CD19 on Raji cells): 0.43 nM
Maximum mean fluorescence intensity (human CD19 on Raji cells): 32500 MFI
OD450 at 0.0001 nM (Human CD19-his protein [1]): 0.11 OD450
OD450 at 0.001 nM (Human CD19-his protein [1]): 0.16 OD450
OD450 at 0.01 nM (Human CD19-his protein [1]): 0.51 OD450
OD450 at 0.10 nM (Human CD19-his protein [1]): 1.68 OD450
OD450 at 1.00 nM (Human CD19-his protein [1]): 2.31 OD450
OD450 at 10 nM (Human CD19-his protein [1]): 2.26 OD450
OD450 at 100 nM (Human CD19-his protein [1]): 2.31 OD450
EC50 [2]: 1.05 nM
Maximum mean fluorescence intensity [2]: 50500 MFI
EC50 (read off the curve) (Human CD19-his protein [3]): ~0.05 nM
OD450 at 0.0001 nM [4]: 0.06 OD450
OD450 at 0.001 nM [4]: 0.06 OD450
OD450 at 0.01 nM [4]: 0.06 OD450
OD450 at 0.10 nM [4]: 0.06 OD450
OD450 at 1.00 nM [4]: 0.06 OD450
OD450 at 10 nM [4]: 0.07 OD450
OD450 at 100 nM [4]: 0.11 OD450
Kd (Human CD19-his protein [6]): 0.225 nM
koff (Human CD19-his protein [6]): 2.51e-05 s⁻¹
kon (Human CD19-his protein [6]): 112000 M⁻¹ s⁻¹
B3: F3.121.4-L3H4 (antibody, mouse IgG1, kappa)
heavy: B2 heavy with V5Q
light: B2 light
notes: humanized antibody of F3.121.4, VL3+VH4, murine IgG1 constant regions
